According to publication PMC3484393, “Unwinding of synthetic replication and recombination substrates by Srs2”:

What was measured:
Srs2ΔC (Srs2 1-898) [1] = target: T1, Srs2ΔC (Srs2 1-898) (Saccharomyces cerevisiae? (budding …, UniProt P12954 1-898)); assay: competition; FITC-3' overhang competitor releasing 50% of Cy5-ssDNA (N1) from 150 nM Srs2ΔC; 30 mM Tris pH 7.5, 1 mM DTT, 0.1 mg/ml BSA, 100 mM KCl, 3 nM DNA, 30 °C 10 min; 7% native PAGE in 0.5x TBE; conditions: protein: recombinant; tags: His9 (pull-down section says His6); label: fluorescein (FITC), end label
T1 sequence (P12954 1-898, stated change not applied): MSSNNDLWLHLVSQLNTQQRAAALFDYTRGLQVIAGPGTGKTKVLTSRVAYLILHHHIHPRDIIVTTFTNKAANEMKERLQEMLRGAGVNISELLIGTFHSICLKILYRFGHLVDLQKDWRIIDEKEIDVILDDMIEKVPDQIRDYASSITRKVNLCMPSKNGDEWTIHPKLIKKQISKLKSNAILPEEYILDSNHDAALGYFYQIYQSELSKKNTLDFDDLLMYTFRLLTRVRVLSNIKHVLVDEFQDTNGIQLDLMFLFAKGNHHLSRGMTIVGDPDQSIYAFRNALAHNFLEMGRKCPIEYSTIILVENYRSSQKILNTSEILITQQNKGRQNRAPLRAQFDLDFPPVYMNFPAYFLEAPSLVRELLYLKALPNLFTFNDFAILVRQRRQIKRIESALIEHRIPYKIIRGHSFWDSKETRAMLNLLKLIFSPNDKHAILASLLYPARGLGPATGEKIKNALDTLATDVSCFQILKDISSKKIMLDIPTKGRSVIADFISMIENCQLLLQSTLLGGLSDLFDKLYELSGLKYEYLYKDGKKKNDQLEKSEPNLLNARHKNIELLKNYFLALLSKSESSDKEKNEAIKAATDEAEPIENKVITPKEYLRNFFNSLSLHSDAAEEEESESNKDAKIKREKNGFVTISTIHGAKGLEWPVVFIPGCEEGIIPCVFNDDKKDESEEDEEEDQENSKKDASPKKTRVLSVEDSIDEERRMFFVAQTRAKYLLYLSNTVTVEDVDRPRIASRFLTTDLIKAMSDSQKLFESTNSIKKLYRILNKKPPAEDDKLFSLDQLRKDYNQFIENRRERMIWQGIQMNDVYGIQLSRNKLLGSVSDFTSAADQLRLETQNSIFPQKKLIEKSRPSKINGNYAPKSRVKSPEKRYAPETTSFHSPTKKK

Srs2ΔC (Srs2 1-898) [2] = target: T1, Srs2ΔC (Srs2 1-898); assay: EMSA; much higher affinity than other substrates; 3 nM DNA; 30 mM Tris pH 7.5, 1 mM DTT, 0.1 mg/ml BSA, 100 mM KCl, 3 nM DNA, 30 °C 10 min; 7% native PAGE in 0.5x TBE; conditions: protein: recombinant, tags: His9 (pull-down section says His6), label: fluorescent dye (fluorescein or Cy5), end label
Srs2ΔC (Srs2 1-898) [3] = target: T1, Srs2ΔC (Srs2 1-898); assay: competition; FITC-ssDNA competitor against Cy5-ssDNA with 150 nM Srs2ΔC; value derived from text: 3 times higher than the 5 nM of 3' overhang; 30 mM Tris pH 7.5, 1 mM DTT, 0.1 mg/ml BSA, 100 mM KCl, 3 nM DNA, 30 °C 10 min; 7% native PAGE in 0.5x TBE; conditions: protein: recombinant; tags: His9 (pull-down section says His6); label: fluorescein or Cy5, end label; single strand

B1: 3' overhang (mixed)
DNA 1: AGCTACCATGCCTGCACGAATTAAGCAATTCGTAATCATGGTCATAGCT
DNA 2: AATTCGTGCAGGCATGGTAGCT
- IC50 (Srs2ΔC (Srs2 1-898) [1]): ~5 nM

B2: 5' overhang (mixed)
DNA 1: B1 DNA 1
DNA 2: AGCTATGACCATGATTACGAATTGCTT
- binding result (Srs2ΔC (Srs2 1-898) [2]): binds

B3: 5' flap (fork with leading strand) (structured_DNA)
DNA 1: B1 DNA 1
DNA 2: AGCTATGACCATGATTACGAATTGCTT
DNA 3: GATGTCAAGCAGTCCTAAGGAATTCGTGCAGGCATGGTAGCT
- binding result (Srs2ΔC (Srs2 1-898) [2]; 5' flap): binds

B4: ssDNA (ssDNA)
DNA: B1 DNA 1
- IC50 (Srs2ΔC (Srs2 1-898) [3]): ~15 nM
